Assay results as given in US6858210B1, “Therapeutic and diagnostic domain 1 β2GPI polypeptides and methods of using same” (La Jolla Pharmaceutical Co., priority 1998, dated 2005).
Where two headings read alike, the source gives them in different places. One block for each molecule: values may come before it.

Tests used:
[1] = tested on: affinity purified β2GPI-dependent antiphospholipid antibody; assay: Competitive inhibition ELISA: recombinant β2GPI proteins compete for antibody binding to coated full length recombinant β2GPI; parameters: species or system human; settings: for IC50: read-out: 50% (concentration to give 50% inhibition)
Procedure: Microtiter plates (MaxiSorp™, Nalge Nunc International, Denmark) were coated with 50 μl of full length recombinant β2GPI at 10 μg/ml in 0.1 M bicarbonate, pH 9.5, incubated overnight at 4° C., washed three times with 0.15 M PBS, pH 7.2, and blocked for one hour at room temperature with 75 μl of 2% Non-fat Dried Milk (Carnation, 2% NFDM). Test inhibitors were diluted in 2% NFDM and 25 μl of each dilution was added to coated wells. Affinity purified β2GPI-dependent antiphospholipid antibody was diluted in 2% NFDM and 25 μl, of a constant concentration, was added to the wells, including a group of wells that had no inhibitor, which acted as the positive controls. The contents of the wells were mixed and the plates were incubated at 37° C. for one hour. The plates were washed three times with PBS, 50 μl of alkaline phosphatase conjugated anti-human IgG, gamma chain specific, (Zymed #62-8422) diluted appropriately in 2% NFDM was added and incubated at 37° C. for one hour. The plates were washed three times with PBS, 50 μl of alkaline phosphatase PPMP chromogenic substrate solution was added and incubated for 30 minutes, at room temperature. The Optical Density, at 550 nm, was determined by reading the plates in a microplate autoreader (Bio-Teck Instruments, model EL3 11). The percent inhibition was determined by dividing the OD550 obtained in the presence of inhibitor by the mean OD550 obtained from the wells without inhibitor and then multiplying by 100 (more particularly, [mean A550 obtained from control wells without inhibitor less A550 of background] minus [A550 obtained in presence of inhibitor less A550 of background] divided by [mean A550 obtained from control wells without inhibitor less A550 of background] times 100).
Seven to nine different recombinant β2GPI mutant proteins were used to determine the antigenic specificity of affinity purified β2GPI-dependent antiphospholipid antibody preparations from 13 different patients. Each mutant recombinant β2GPI protein was tested, in a dose dependent fashion, for its ability to inhibit affinity purified β2GPI-dependent antiphospholipid antibody from binding to full length recombinant β2GPI. The following values were also observed for domain 1 only recombinant protein (1 - - - -; see Table 2 for designations): […]

rabbit anti-β2GPI = assay: Direct binding ELISA, nickel chelate-coated wells, rabbit antibody; settings: O.D. at 550 nm
Procedure: (§1) Nickel Chelate-coated microwell plates (NCP 010 00 Xenopore Corp. 374 Midland Ave. Saddle Brook, N.J. USA) were coated with 50 μl of serial dilutions of the various recombinant β2GPI, in PBS, at room temperature for 2 hours. The plates were washed three times with PBS and blocked with 75 μl of a 1% gelatin (Sigma #G-2500) in PBS for one hour room temperature. […] The plates were washed three times with PBS, 50 μl of alkaline phosphatase conjugated anti-immunoglobulin (anti-human IgG, gamma chain specific, Zymed #62-8422) or anti-rabbit IgG (Zymed #62-6122) diluted appropriately in 1% gelatin was added and incubated at 37° C. for one hour. The plates were washed three times with PBS, 50 μl of alkaline phosphatase PPMP chromogenic substrate solution was added and incubated for 30 minutes at room temperature. The optical density, at 550 nm, was determined by reading the plates in a microplate autoreader (Bio-Teck Instruments, model EL311).
(§2) Seven to nine different recombinant β2GPI mutant proteins were examined to determine if they could support the direct binding of affinity purified β2GPI-dependent antiphospholipid antibody preparations in the absence of anionic phospholipid. All recombinant mutant β2GPI were assayed with affinity purified β2GPI-dependent antiphospholipid antibody preparations from 11 different patients. Each mutant recombinant β2GPI protein was tested, in a dose dependent fashion and GST-6his was included as a negative control. The recombinant mutant β2GPI proteins were bound to nickel coated microtiter plates via their 6-his tail. All recombinant mutant β2GPI proteins tested bound rabbit anti-β2GPI showing that they were assessable by antibody (FIG. 5).

[2] = tested on: affinity purified β2GPI-dependent antiphospholipid antibody; assay: Direct binding ELISA, nickel chelate-coated wells charged with recombinant β2GPI proteins (no cardiolipin); parameters: species or system human; settings: O.D. at 550 nm
Procedure: as §1, §2

[3] = tested on: antiphospholipid antibody in plasma from patient 6501; assay: Competitive antibody binding ELISA with patient plasma on β2GPI coated plates; parameters: species or system human; settings: plasma patient 6501, 1:200
Procedure: Nunc Maxisorp microplates (Nalge Nunc International, Denmark) were coated with 100 μL/well of β2GPI at 2.5 μg/mL in PBS, incubated for 2 hours at room temperature, and blocked for 2 hours at room temperature with 250 μl/well of 2% nonfat milk with […] (Sigma Chemical Co.). […] After incubation for one hour at room temperature the plates were washed 5× with TBS. To each well was added 100 μL of alkaline phosphatase-conjugated anti-human IgG, gamma chain specific (Zymed) diluted 1:1000 in 2% nonfat milk with 0.4% Tween-80. After one hour at room temperature the plates were washed 5× with TBS. To each well was added 100 μl PPMP chromogenic substrate solution for color development at room temperature. Optical absorbance per well was determined at A550nm in a commercial microplate reader (Bio-Tek Instruments EL3 11).

Max (maximum inhibition observed at concentrations tested) ([1]; Ab 6203): 10%
IC50 ([1]; Ab 6203): > 40 µM
Max (maximum inhibition observed at concentrations tested) ([1]; Ab 6501): 15%
IC50 ([1]; Ab 6501): > 40 µM
Max (maximum inhibition observed at concentrations tested) ([1]; Ab 6509): 20%
IC50 ([1]; Ab 6509): > 5 µM
Max (maximum inhibition observed at concentrations tested) ([1]; Ab 6626): 15%
IC50 ([1]; Ab 6626): > 40 µM
Max (maximum inhibition observed at concentrations tested) ([1]; Ab 6632): 20%
IC50 ([1]; Ab 6632): > 40 µM
Max (maximum inhibition observed at concentrations tested) ([1]; Ab 6641): 20%
IC50 ([1]; Ab 6641): > 5 µM
Max (maximum inhibition observed at concentrations tested) ([1]; Ab 6644): 10%
IC50 ([1]; Ab 6644): > 40 µM
Max (maximum inhibition observed at concentrations tested) ([1]; Ab 6652): 20%
IC50 ([1]; Ab 6652): > 5 µM
Max (maximum inhibition observed at concentrations tested) ([1]; Ab 6701): 15%
IC50 ([1]; Ab 6701): > 5 µM
Max (maximum inhibition observed at concentrations tested) ([1]; Ab 7008): 20%
IC50 ([1]; Ab 7008): > 40 µM
Max (maximum inhibition observed at concentrations tested) ([1]; Ab 7015): 10%
IC50 ([1]; Ab 7015): > 40 µM
Max (maximum inhibition observed at concentrations tested) ([1]; Ab 7101): 5%
IC50 ([1]; Ab 7101): > 40 µM
Max (maximum inhibition observed at concentrations tested) ([1]; Ab 7104): 5%
IC50 ([1]; Ab 7104): > 40 µM
B1: ---45: recombinant β2GPI deletion mutant with domains 4, 5 (protein)
chain: GREVKCPFPSRPDNGFVNYPAKPTLYYKDKATFGCHDGYSLDGPEEIECTKLGNWSAMPSCKASCKLPVKKATVVYQGERVKIQEKFKNGMLHGDKVSFFCKNKEKKCSYTEDAQCIDGTIEVPKCFKEHSSLAFWKTDASDVKPCGHHHHHH
Maximum O.D. (rabbit anti-β2GPI): 1.941
Maximum O.D. ([2]; Ab 6203): 0.142
Maximum O.D. ([2]; Ab 6501): 0.086
Maximum O.D. ([2]; Ab 6626): 0.086
Maximum O.D. ([2]; Ab 6632): 0.000
Maximum O.D. ([2]; Ab 6641): 0.112
Maximum O.D. ([2]; Ab 6652): 0.013
Maximum O.D. ([2]; Ab 6701): 0.000
Maximum O.D. ([2]; Ab 7008): 0.030
Maximum O.D. ([2]; Ab 7015): 0.167
Maximum O.D. ([2]; Ab 7101): 0.167

competition for antiphospholipid antibody binding to β2GPI [3]: no such competition
B2: Reduced and alkylated domain 1: β2GPI domain 1 polypeptide that had been reduced and alkylated, negative control (protein)
chain: GRTCPKPDDLPFSTVVPLKTFYEPGEEITYSCKPGYVSRGGMRKFICPLTGLWPINTLKCTPRV
modifications: also: reduced and alkylated cysteines, alkylating agent not given here
notes: β2GPI domain 1 polypeptide that had been reduced and alkylated, negative control
